Test results as given in patent US20070131547A1.

Target: goxDp-Dzip2 (diaphorase derived from Gluconobacter oxydans, Dzip2 association site fused at the C-terminal side) (Gluconobacter oxydans)
Experiment: cell-based or functional assay

Substance: His-bmaEDH-Dzip1 (glutamic acid dehydrogenase derived from Burkholderia mallei, His tag, Dzip1 assoc (enzyme)
- maximum electric power (glutamic acid fuel cell): 106 µW/cm^2
- shortcircuit current density (glutamic acid fuel cell): 1230 µA/cm^2
